Results as given in the supplement of paper PMC12042874.
± gives the uncertainty stated by the source.

Assay: amyloid nucleation score (Sup35N fusion, yeast selection) (log enrichment); library NNK1; higher = more nucleation; inactive = no reads after selection
How it was run: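 The nucleation score is a DiMSum log enrichment of output over input reads, centred on the mode score of non-aggregating sequences. Sequences under 100 input reads were excluded, and reads came from Illumina sequencing of plasmid inserts. Psi-negative yeast expressing Sup35N fused to peptides of 20 random codons were induced with 100 μM copper sulfate for 24 hours and grown 7 days at 30°C on medium lacking adenine and uracil. Random libraries had three technical output replicates.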

Row | Substance | amyloid nucleation score
1 | YRCNT | -0.244 ± 0.32
2 | ATKSRLVNILTGKDEALTGL | -0.684 ± 0.42
3 | YTFGWLLIKPHLRPAFKPHR | -1.75 ± 2.7
4 | VDVANGLADVYLLQ | -0.009 ± 0.57
5 | RNNQSHGMNYFFESCVVFYC | 7.8 ± 0.047
6 | NPVRMMRNRLVLGKNCAPRG | -0.024 ± 0.28
7 | KRLDVKMVLPEVRFRLDVSL | 0.732 ± 0.27
8 | IFRSFLDG | -0.437 ± 0.3
9 | FIQNKVLVFQSNSTNDLLFP | 6.071 ± 0.058
10 | SCVSSLYCH | 0.057 ± 0.65
11 | VLILELDGS | -1.11 ± 2.7
12 | RWLPPLRVRIRDHTHIITDK | 2.22 ± 0.17
13 | FNFCHE | -0.392 ± 0.6
14 | MVTEDEERMANLSWHESGAY | -1.07 ± 0.74
15 | NPRVNNYRVNGWKRGIRDRA | 0.66 ± 0.35
16 | PGYSVPFSCGDQVPQQLPIR | -0.538 ± 2.1
17 | SKRMNGRNP | 0.153 ± 0.47
18 | YTTVVQF | 0.064 ± 0.23
19 | EVATGSGERIQLCQVQSVNT | 1.6 ± 0.55
20 | NRACRMMQWS | -0.441 ± 1.2
21 | LVFPWIISFCQRMWMLYQRY | 0.499 ± 0.35
22 | LYESYDMVEKQDRTWSKGSS | 0.281 ± 0.65

Row | Substance | amyloid nucleation score
23 | LSNLDMVM | inactive
24 | SIPNSAQHFTSPPARFHSTG | 0.042 ± 0.69
25 | VHRDFGSENYSTLEVCNSLT | 1.16 ± 0.84
26 | CTAYYMLGGGRNLNHPLMWV | 0.497 ± 0.61
27 | RQGLSAGSRYIK | -0.311 ± 0.69
28 | VSYKCSVRFLCIGRLRGVLF | -0.197 ± 0.28
29 | FYTCCMSYVVWIMHVRRLAG | 0.774 ± 0.56
30 | ATSALGCVTHVIMSNILTMN | 0.106 ± 0.34
31 | LNYTVQSDTWHLNWQP | 0.875 ± 0.93
32 | TYRVVFVAGIHQFNFVPLVR | 0.009 ± 1.1
33 | VHATLLNHA | 0.898 ± 0.64
34 | YVGIPQCGDLKRRPLA | 0.116 ± 1.1
35 | YPSIGLRVLLNYCDPTDTGA | 0.255 ± 1.2
36 | DLCFCTR | -1.37 ± 2.7
37 | VYWMFV | 0.369 ± 0.3
38 | RRWFYLGAFVYKSNTIDVGV | -0.214 ± 0.35
39 | LASTVSDWN | 0.32 ± 0.39
40 | CTFTY | 0.053 ± 1.1
41 | RYRWTSLVFLGMTQH | 0.75 ± 0.38
42 | IMSSL | -0.507 ± 0.73
43 | YGRATIWNYKSSMDGPKNGK | inactive
44 | IVRVLCSLLIQFKVNAY | inactive

Row | Substance | amyloid nucleation score
45 | KVQYLFCNYLIKSYMMVQCN | 0.477 ± 0.39
46 | HYLVLYVIMYMFVQMSLPC | 2.14 ± 0.49
47 | DVQQPPMDSISH | 1.17 ± 0.57
48 | VGLIDANTSSTSWCEGMRNS | -0.321 ± 0.47
49 | YYNFLLIIFNCCKVMS | 3.5 ± 0.11
50 | DPQTGDGVLAMNKWEPYRGL | 0.697 ± 0.48
51 | SVCPKINLLNFVWNYYAPTA | 6.869 ± 0.064
52 | SVIAVSLETQVIAWVRYYPK | -0.315 ± 0.55
53 | IMCPMWWLVLYNSSVQRYAE | 6.11 ± 0.07
54 | TVNCGQSSMWDFWTGLTECG | -0.22 ± 0.75
55 | RGGMIPGYTPAMYHWMLFKS | 0.185 ± 0.47
56 | LRTRSLTALFQLCYHTCNVG | 0.431 ± 0.42
57 | RNCNTT | 0.034 ± 0.61
58 | YFKEFWIWLW | inactive
59 | QNNCSPARPTAHNYVGGHAT | 0.656 ± 1
60 | FLGLLVPFFNWRDKKRKYSG | 0.012 ± 0.79
61 | FMVLDQFIE | 0.383 ± 0.95
62 | GRATMGRGRCNLFGHKGHGH | 0.046 ± 0.55
63 | LLAIHAYREVLTGPGCGYLT | 1.15 ± 0.66
64 | NSWSFGPSGTQFGLSLFYGL | -0.979 ± 2.7
65 | QIAVWPSYFSGDIGDMSRKG | 0.017 ± 0.56
66 | EANMIYFLNGANLHRFFKHF | 1.59 ± 0.35

Row | Substance | amyloid nucleation score
67 | KVLGWNMGVHFNHGGRSFVM | 0.461 ± 0.54
68 | HNSNECYYF | -1.06 ± 2.4
69 | MLRAGY | -0.292 ± 0.63
70 | RWMPFISLSVNLTGNYLIRL | 2.25 ± 0.27
71 | QYYFARIREFLSIQFIAWYC | 0.172 ± 0.32
72 | YNFFGCVCDAPPPKCLVYFM | 7.596 ± 0.075
73 | DSPNVVQLLKYTLRYEARLG | 0.877 ± 0.16
74 | PQKLQGQIGCR | -0.549 ± 0.47
75 | SFLDCLRCCKCAGMR | 1.5 ± 0.18
76 | ICSWPNRRVAVPH | -0.482 ± 1.2
77 | NELMSYVWQDKPRKYRYLF | 1.2 ± 0.13
78 | NEFKFKVRTKEFRFEVCLKY | inactive
79 | WCVYNFSCALISPY | 6.018 ± 0.054
80 | FVGGVSSERYLFGWLS | -1.51 ± 1
81 | EAARMWSFNGNLSVFWIT | 5.72 ± 0.097
82 | KDSGYMCWMGDLCVWSP | 5.97 ± 0.097
83 | NYRIRAWGNNYGHQGATCLR | inactive
84 | SLFLGVVHFAVRVSLGSVWG | -0.771 ± 0.82
85 | HLRFYAYRGMGRPNFFLCFE | 0.183 ± 0.38
86 | CSYPYGQSEDCGSRSGRGYA | 0.877 ± 1
